Results published in article PMC3515450, “Mechanistic and Structural Understanding of Uncompetitive Inhibitors of Caspase-6” (PLoS ONE, 2012).
* marks the point of attachment. AMC = Cc1cc(=O)oc2cc(N*)ccc12; R110 = Rhodamine110 dye

Tests used:
(Ac-VEID)2R110 = system: T1, (Ac-VEID)2R110; experiment: SPR; as a2, but substrates (10 µM) mixed with compound 3 (1 µM) and injected together over the captured caspase-6 surfaces; apparent
T1 sequence: VEID

caspase-6 = biological target: T2, caspase-6 (Homo sapiens, UniProt P55212); experiment: Caspase-6 enzymatic assay with fluorogenic tetrapeptide substrates; format: biochemical
T2 construct: Residues 24-179 and 194-293 from caspase-6 cDNA (Origene) were cloned into pET-24b and pET-23b vectors; 6x histidine tag (C); made in house; host or cells: E. coli BL21 (DE3) pLysS
T2 sequence (P55212 24-179): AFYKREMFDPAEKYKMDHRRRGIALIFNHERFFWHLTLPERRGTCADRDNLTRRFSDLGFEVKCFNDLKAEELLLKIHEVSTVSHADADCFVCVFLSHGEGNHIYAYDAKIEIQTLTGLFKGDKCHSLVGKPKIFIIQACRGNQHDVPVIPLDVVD
T2 sequence (P55212 194-293): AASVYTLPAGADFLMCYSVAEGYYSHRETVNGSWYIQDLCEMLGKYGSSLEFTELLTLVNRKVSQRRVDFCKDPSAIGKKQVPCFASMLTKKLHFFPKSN
Procedure: The in vitro enzymatic caspase assays utilize synthetic tetrapeptide substrates labeled with the fluorophores Rhodamine110 (R110) or 7-amino-4-methylcoumarin (AMC) at the P1 aspartic acid (Asp) residue. All assays were performed in 384-well plates in 12 µL reaction volume consisting of enzyme, substrate and indicated concentration of inhibitor or DMSO in assay buffer (50 mM HEPES [pH 7.0], 25 mM MgSO4, 0.5 mM EGTA, 5 mM Glutathione (GSH), 0.01% Triton X-100 containing 0.1% Bovine Gamma Globulin (BGG)). All inhibitors were serially diluted in 100% DMSO prior to dilution in assay buffer and transfer to assay plate. DMSO was diluted into assay buffer similarly for blank wells (no enzyme or compound) and final DMSO concentration was 1%. The concentration of caspase-6 used in enzymatic reactions typically varied between 1–10 nM depending on substrate used. Unless otherwise indicated, substrate concentration was within 3-fold of the determined Kmapparent (5 µM (Ac-VEID)2R110 [Kmapp = 8 µM]; 5 µM (Ac-DEVD)2R110 [Kmapp = 8 µM]; 25 µM (Ac-IETD)2R110 [Kmapp = 70 µM]; 25 µM (Ac-WEHD)2R110 [Kmapp = 70 µM]; 10µM Ac-VEID-AMC [Kmapp = 16µM]; 5 µM Ac-VEID-R110 [Kmapp = 8 µM]). The concentration of substrate utilized in selectivity assays for each caspase isoform was also held as close to Kmapparent as reasonably achievable (Table S1). Caspases-3 and -7 were expressed and purified at Genentech as the catalytic domain consisting of large p20 and small p10 subunits without prodomain. For all caspase enzymatic assays, the reaction plate was incubated at room temperature for 40 minutes and then read on Envision (Perkin Elmer) fluorescent plate reader at excitation/emission wavelengths of 485/535 nm (R110) or 350/450 nm (AMC). […]
The endpoint fluorescent emission (RFU) in each well was plotted as a function of inhibitor concentration and the 50% inhibition (IC50) values were determined using a nonlinear least squares fit of the data to a four parameter equation using Prism 5.0 software (GraphPad Software, San Diego, CA). […] Ki values for Compound 3 were calculated using this equation: Ki = IC50/(Km/[S] +1). Concentration-response curves for each inhibitor were normalized to zero and 100% based on no enzyme or DMSO control, respectively. For steady-state kinetic analysis, initial reaction velocity (RFU/minute) was plotted against substrate concentration at each inhibitor concentration and the data was fit to a hyperbolic Michaelis-Menten model using Prism 5.0 software. Km (µM) and Vmax (RFU/minute) were calculated by using this equation: v = Vmax • [S]/Km+[S] where v = initial reaction velocity at indicated substrate concentration (S). Vmax values were normalized to zero and 100% based on no enzyme or DMSO control, respectively.
Expression and purification of caspase-6 for enzymatic assays: Human caspase-6 was expressed as the mature enzyme using a split construct. Residues 24-179 and 194-293 from caspase-6 cDNA (Origene) were cloned into pET-24b and pET-23b vectors (Novagen) respectively; the small subunit contained a C-terminal 6x histidine tag. Vectors were cotransfected into the E.coli strain BL21 (DE3) pLysS (Stratagene). Cells were grown from a single colony in 6L of 2xYT supplemented with ampicillin and kanamycin at 37 °C to an OD of ~ 0.5 and were subsequently cooled to 16 °C before overnight induction with 0.2 mM IPTG. Cells were harvested by centrifugation, resuspended in 100 mM NaCl, 100 mM Tris, pH 8.0, and lysed.

caspase-3 = biological target: T3, caspase-3 (Homo sapiens, UniProt P42574); experiment: Caspase-3 enzymatic assay with divalent R110 substrates; format: biochemical; conditions: caspase-3
T3 construct: as the catalytic domain consisting of large p20 and small p10 subunits without prodomain; made in house
T3 sequence (P42574 29-175 limits assumed): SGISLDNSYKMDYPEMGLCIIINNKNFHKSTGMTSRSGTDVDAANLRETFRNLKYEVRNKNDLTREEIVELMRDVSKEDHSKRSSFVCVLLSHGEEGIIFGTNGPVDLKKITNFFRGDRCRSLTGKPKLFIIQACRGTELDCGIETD
T3 sequence (P42574 176-277 limits assumed): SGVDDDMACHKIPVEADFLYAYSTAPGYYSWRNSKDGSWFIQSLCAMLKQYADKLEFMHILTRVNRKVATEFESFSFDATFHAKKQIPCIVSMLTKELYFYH
Procedure: The in vitro enzymatic caspase assays utilize synthetic tetrapeptide substrates labeled with the fluorophores Rhodamine110 (R110) or 7-amino-4-methylcoumarin (AMC) at the P1 aspartic acid (Asp) residue. All assays were performed in 384-well plates in 12 µL reaction volume consisting of enzyme, substrate and indicated concentration of inhibitor or DMSO in assay buffer (50 mM HEPES [pH 7.0], 25 mM MgSO4, 0.5 mM EGTA, 5 mM Glutathione (GSH), 0.01% Triton X-100 containing 0.1% Bovine Gamma Globulin (BGG)). All inhibitors were serially diluted in 100% DMSO prior to dilution in assay buffer and transfer to assay plate. DMSO was diluted into assay buffer similarly for blank wells (no enzyme or compound) and final DMSO concentration was 1%. The concentration of caspase-6 used in enzymatic reactions typically varied between 1–10 nM depending on substrate used. Unless otherwise indicated, substrate concentration was within 3-fold of the determined Kmapparent (5 µM (Ac-VEID)2R110 [Kmapp = 8 µM]; 5 µM (Ac-DEVD)2R110 [Kmapp = 8 µM]; 25 µM (Ac-IETD)2R110 [Kmapp = 70 µM]; 25 µM (Ac-WEHD)2R110 [Kmapp = 70 µM]; 10µM Ac-VEID-AMC [Kmapp = 16µM]; 5 µM Ac-VEID-R110 [Kmapp = 8 µM]). The concentration of substrate utilized in selectivity assays for each caspase isoform was also held as close to Kmapparent as reasonably achievable (Table S1). Caspases-3 and -7 were expressed and purified at Genentech as the catalytic domain consisting of large p20 and small p10 subunits without prodomain. For all caspase enzymatic assays, the reaction plate was incubated at room temperature for 40 minutes and then read on Envision (Perkin Elmer) fluorescent plate reader at excitation/emission wavelengths of 485/535 nm (R110) or 350/450 nm (AMC).
The endpoint fluorescent emission (RFU) in each well was plotted as a function of inhibitor concentration and the 50% inhibition (IC50) values were determined using a nonlinear least squares fit of the data to a four parameter equation using Prism 5.0 software (GraphPad Software, San Diego, CA). […]

Kmapp of substrate (caspase-6; caspase-6) [µM]	Molecule	apparent KD with compound 3 (dissociation of both compound and substrate) ((Ac-VEID)2R110)	also measured
	apo-caspase-6 with C-terminal avi-tag, biotinylated	an apparent KD of ∼200 nM	
	COc1ccc(-c2cc(C(=O)NC(Cc3ccccc3)C(=O)O)c(C)o2)cc1OC (centres unmarked) [Compound 2]		binding efficiency index (BEI; pIC50/molecular weight) (caspase-6; caspase-6, (VEID)2R110): 11.5; IC50 (caspase-6; caspase-6 cleavage of (VEID)2R110 substrate, read-out: IC50): 20 µM
8	(VEID)2R110: Rhodamine110 dye conjugated to two valine-glutamate-isoleucine-aspartate tetrapeptides; fluorogenic substrate (Ac-VEID-R110; also: two VEID chains on one R110 dye) [reference compound]		Kcat of substrate (caspase-6; caspase-6, kcat = Vmax/[E]): 0.11 s⁻¹; Kmapp of substrate (caspase-3): 8 µM
16	Ac-VEID-AMC: monovalent VEID substrate in which R110 is replaced by amino-methyl coumarin (Ac-VEID-{AMC}; SMILES CC[C@H](C)[C@H](NC(=O)[C@H](CCC(=O)O)NC(=O)[C@@H](NC(C)=O)C(C)C)C(=O)N[C@@H](CC(=O)O)C(=O)Nc1ccc2c(C)cc(=O)oc2c1) [reference compound]		
	mature C163A-caspase-6 with C-terminal avi-tag	an apparent KD of ∼200 nM	
